Patent US20250188033A1, “INHIBITOR OF REPLICATION PROTEIN A1 OF TRYPANOSOMA BRUCEI AND METHOD OF USE THEREOF” (Research Foundation of the City University of New York, published 2025)

T1: TbRPA complex (RPA1/RPA2/RPA3) (Trypanosoma brucei, UniProt Q384B5;Q57ZN9;Q38DK0 Q384B5:1-463,Q57ZN9:1-255,Q38DK0:1-127)
T1 sequence 1: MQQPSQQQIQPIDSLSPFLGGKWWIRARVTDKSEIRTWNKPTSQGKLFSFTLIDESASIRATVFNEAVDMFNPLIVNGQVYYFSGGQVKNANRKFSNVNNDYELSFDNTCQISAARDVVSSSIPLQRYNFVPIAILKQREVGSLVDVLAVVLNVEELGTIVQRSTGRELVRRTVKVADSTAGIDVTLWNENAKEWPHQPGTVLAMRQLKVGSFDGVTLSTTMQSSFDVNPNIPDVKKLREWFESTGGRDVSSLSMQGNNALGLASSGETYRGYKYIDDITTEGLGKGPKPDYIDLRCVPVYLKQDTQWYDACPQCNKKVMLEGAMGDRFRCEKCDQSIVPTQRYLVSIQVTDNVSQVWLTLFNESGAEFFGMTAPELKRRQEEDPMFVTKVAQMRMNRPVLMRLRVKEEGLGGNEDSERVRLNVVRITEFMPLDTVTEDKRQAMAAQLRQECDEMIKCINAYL
T1 sequence 2: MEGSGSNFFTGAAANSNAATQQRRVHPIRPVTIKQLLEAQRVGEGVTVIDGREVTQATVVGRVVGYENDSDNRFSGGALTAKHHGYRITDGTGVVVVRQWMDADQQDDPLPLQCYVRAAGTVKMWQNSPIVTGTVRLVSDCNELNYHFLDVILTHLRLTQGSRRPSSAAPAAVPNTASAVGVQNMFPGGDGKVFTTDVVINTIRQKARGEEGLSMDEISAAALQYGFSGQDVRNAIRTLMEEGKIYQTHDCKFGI
T1 sequence 3: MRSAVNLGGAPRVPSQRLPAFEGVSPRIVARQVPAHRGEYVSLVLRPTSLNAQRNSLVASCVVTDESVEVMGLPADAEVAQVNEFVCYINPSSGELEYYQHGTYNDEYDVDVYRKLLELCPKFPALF

T2: TcRPA1 DBD-AB (Trypanosoma cruzi, UniProt Q4DXC9 Q4DXC9:1-256)
T2 sequence: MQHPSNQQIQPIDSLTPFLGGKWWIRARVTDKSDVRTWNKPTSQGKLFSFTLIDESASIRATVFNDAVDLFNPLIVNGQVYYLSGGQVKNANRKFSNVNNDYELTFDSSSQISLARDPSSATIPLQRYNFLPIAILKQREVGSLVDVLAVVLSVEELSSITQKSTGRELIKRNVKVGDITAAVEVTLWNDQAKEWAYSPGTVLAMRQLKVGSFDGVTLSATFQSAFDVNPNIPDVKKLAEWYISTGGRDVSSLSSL

T3: LmexRPA1 DBD-AB (Leishmania mexicana, UniProt E9B001 E9B001:1-258)
T3 sequence: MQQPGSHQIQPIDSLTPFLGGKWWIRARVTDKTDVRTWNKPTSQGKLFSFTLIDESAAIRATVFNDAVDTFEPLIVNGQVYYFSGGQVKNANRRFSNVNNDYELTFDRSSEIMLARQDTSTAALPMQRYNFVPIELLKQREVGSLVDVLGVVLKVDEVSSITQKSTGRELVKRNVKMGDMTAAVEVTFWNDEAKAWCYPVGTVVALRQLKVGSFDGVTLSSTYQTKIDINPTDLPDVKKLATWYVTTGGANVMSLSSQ


How the values were obtained:
[1] = target: T1, TbRPA complex (RPA1/RPA2/RPA3); assay: MST; 10 mM MgCl2, 10 mM NaCl, Tris pH 7.5, 22 C; JC-229 inhibits binding, IC50 24.5 nM; conditions: tags: 6xHis-thrombin site on RPA1 (pSR8), E. coli; one complex per dT32 stated; label: 5' Cy5
Method: FIG. 5C are graphs showing recombinant TbRPA complex was 2-fold serially diluted from 400 nM concentration and these were incubated with 10 nM 5′Cy5-dT₃₂. Binding was analyzed by MST (left). Serial dilutions of JC-229 were pre-incubated with 25 nM TbRPA complex and then with 10 nM 5′Cy5-dT₃₂. Inhibition of binding was analyzed by MST (right).
(§1) MST experiments were performed on Monolith NT.115 instrument with red filter (Nanotemper Technologies) in MST binding buffer (20 mM Tris, pH 7.5, 10 mM NaCl, 10 mM MgCl₂, 2 mM DTT, 10% glycerol and 0.1 mg/ml BSA) using premium-coated capillaries (Nanotemper Technologies). MST experiments were performed with 40% LED power and 40% MST power at 22° C.
(§2) ssDNA-binding assay: The 5′Cy5 labeled-oligo dT32 was purchased from IDT. Increasing concentrations of purified protein (from 0.06 nM to 2,000 nM for DBD-AB proteins; from 0.02 nM to 800 nM for RPA complexes) were incubated with equal volume (10 μl) of 5′Cy5-labeld oligo dT₃₂ (10 nM final concentration) in MST binding buffer for 15 min at room temperature. Samples were then loaded into MST capillaries.

[2] = target: T4, TbRPA1 DBD-AB W188A (Trypanosoma brucei, UniProt Q384B5 Q384B5:1-257, W188A); assay: MST; no ssDNA-binding activity; conditions: tags: 6xHis, pET28a, E. coli; label: 5' Cy5
[3] = target: T5, TbRPA1 DBD-AB F64A (Trypanosoma brucei, UniProt Q384B5 Q384B5:1-257, F64A); assay: MST; no ssDNA-binding activity; conditions: tags: 6xHis, pET28a, E. coli; label: 5' Cy5
[4] = target: TcRPA1 DBD-AB T105S (Trypanosoma cruzi, UniProt Q4DXC9 Q4DXC9:1-256, T105S); assay: MST; 10 mM MgCl2, 22 C; JC-229 IC50 159x10^3 nM; conditions: tags: N-terminal 6xHis, pET28a, E. coli; label: 5' Cy5
[5] = target: T2, TcRPA1 DBD-AB; assay: MST; p171-172 quotes 12.6 nM for the same WT protein; 10 mM MgCl2, 22 C; not inhibited by JC-229; conditions: tags: N-terminal 6xHis, pET28a (pSR13), E. coli; label: 5' Cy5
Method: as §1, §2

[6] = target: HsRPA1 DBD-AB (Homo sapiens, UniProt P27694 P27694:181-422); assay: MST; 10 mM MgCl2, 10 mM NaCl, Tris pH 7.5, 22 C; not inhibited by JC-229; conditions: tags: 6xHis, pET28a (pSR15), E. coli; label: 5' Cy5
Sequence of HsRPA1 DBD-AB (P27694 181-422, one chain of several): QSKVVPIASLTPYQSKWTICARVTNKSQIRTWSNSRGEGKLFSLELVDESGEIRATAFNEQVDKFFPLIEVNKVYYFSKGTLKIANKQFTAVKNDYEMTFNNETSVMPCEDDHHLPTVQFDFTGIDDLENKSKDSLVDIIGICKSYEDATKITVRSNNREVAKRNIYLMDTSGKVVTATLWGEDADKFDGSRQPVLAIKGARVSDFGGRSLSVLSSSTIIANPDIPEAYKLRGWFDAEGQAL
Method: as §1, §2

[7] = target: T3, LmexRPA1 DBD-AB; assay: as above; conditions: tags: N-terminal 6xHis, pET28a (pSR16), E. coli; label: 5' Cy5
Method: as §1, §2

[8] = target: TbRPA1 DBD-AB S105T (Trypanosoma brucei, UniProt Q384B5 Q384B5:1-257, S105T); assay: EMSA; 10 mM MgCl2, RT; not inhibited by JC-229; conditions: tags: 6xHis, pET28a, E. coli; label: 5' IRDye800
[9] = target: T4, TbRPA1 DBD-AB W188A; assay: EMSA; no ssDNA-binding activity; conditions: tags: 6xHis, pET28a, E. coli; label: 5' IRDye800
[10] = target: T5, TbRPA1 DBD-AB F64A; assay: EMSA; no ssDNA-binding activity; conditions: tags: 6xHis, pET28a, E. coli; label: 5' IRDye800

Binder | Kd [1] [nM] | binding result [2] | binding result [3] | Kd [4] [nM] | Kd [5] [nM] | Kd [6] [nM] | Kd [7] [nM] | binding result [8] | binding result [9] | binding result [10]
TTTTTTTTTTTTTTTTTTTTTTTTTTTTTTTT (ssDNA) [5'Cy5-dT32] | 13.2 | no binding | no binding | 52.4 | 13.2 | 48 | 12.6 | – | – | –
TTTTTTTTTTTTTTTTTTTTTTTTTTTTTTTT (ssDNA) [5'IRDye800-dT32] | – | – | – | – | – | – | – | binds | no binding | no binding
